From the supplement of paper PMC9112550, “Optimization of the antimicrobial peptide Bac7 by deep mutational scanning” (BMC Biology, 2022)

System: Escherichia coli TOP10
Assay: shrunken log2 fold change of peptide-encoding DNA abundance (4.5 h post-induction vs induction); higher = less antimicrobial activity (less host growth inhibition)
Conditions: time post-induction: 4.5 h; library: site-saturation at positions 5, 18, 19, 20
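Note: peptides expressed intracellularly from a pBAD plasmid library in pooled LB shake-flask culture, induced with 0.3% L-arabinose, DNA abundance read by NGS, three biological replicates, DESeq2 with apeglm shrinkage.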

How did the “shrunken log2 fold change” value turn out when RRIRPRPPRLPRPRPRPMGNPRP was run?
The value was -0.0876.

For RRIRPRPPRLPRPRPRPMHCPRP, which “shrunken log2 fold change” value is on record?
Its value is -0.0698.

RRIRPRPPRLPRPRPRPMIDPRP was tested. Which “shrunken log2 fold change” value did it give?
The value was -0.16.

RRIRPRPPRLPRPRPRPMKEPRP was tested. Which “shrunken log2 fold change” value did it give?
Its value is 0.104.

With RRIRPRPPRLPRPRPRPMLIPRP as the sequence, how does the “shrunken log2 fold change” value read?
The value was -0.553.

With RRIRPRPPRLPRPRPRPMNGPRP as the sequence, how does the “shrunken log2 fold change” value read?
The value was 0.137.

With RRIRPRPPRLPRPRPRPMRMPRP as the sequence, how does the “shrunken log2 fold change” value read?
Its value is 0.268.

RRIRPRPPRLPRPRPRPMRVPRP was tested. Which “shrunken log2 fold change” value did it give?
Its value is 0.998.

For RRIRPRPPRLPRPRPRPMSSPRP, which “shrunken log2 fold change” value is on record?
Its value is -0.135.

RRIRPRPPRLPRPRPRPMTEPRP was tested. Which “shrunken log2 fold change” value did it give?
Its value is -0.0153.

With RRIRPRPPRLPRPRPRPMTHPRP as the sequence, how does the “shrunken log2 fold change” value read?
Its value is -0.268.

Which “shrunken log2 fold change” value does the source give for RRIRPRPPRLPRPRPRPMTVPRP here?
The value was -0.038.

RRIRPRPPRLPRPRPRPMVKPRP was tested. Which “shrunken log2 fold change” value did it give?
The value was -0.154.

For RRIRPRPPRLPRPRPRPMVSPRP, which “shrunken log2 fold change” value is on record?
The value was -0.0725.

With RRIRPRPPRLPRPRPRPMWKPRP as the sequence, how does the “shrunken log2 fold change” value read?
The value was -0.146.

How did the “shrunken log2 fold change” value turn out when RRIRPRPPRLPRPRPRPMWVPRP was run?
Its value is -0.138.

For RRIRPRPPRLPRPRPRPMYHPRP, which “shrunken log2 fold change” value is on record?
Its value is -0.35.

RRIRPRPPRLPRPRPRPMYSPRP was tested. Which “shrunken log2 fold change” value did it give?
The value was -0.386.

Which “shrunken log2 fold change” value does the source give for RRIRPRPPRLPRPRPRPNAFPRP here?
The value was -0.0225.

RRIRPRPPRLPRPRPRPNAWPRP was tested. Which “shrunken log2 fold change” value did it give?
The value was 0.356.

Which “shrunken log2 fold change” value does the source give for RRIRPRPPRLPRPRPRPNAYPRP here?
Its value is -0.0709.

Which “shrunken log2 fold change” value does the source give for RRIRPRPPRLPRPRPRPNCEPRP here?
The value was 0.117.

Which “shrunken log2 fold change” value does the source give for RRIRPRPPRLPRPRPRPNDAPRP here?
The value was -0.025.

RRIRPRPPRLPRPRPRPNDCPRP was tested. Which “shrunken log2 fold change” value did it give?
Its value is 0.0214.

Which “shrunken log2 fold change” value does the source give for RRIRPRPPRLPRPRPRPNDHPRP here?
The value was -0.386.

For RRIRPRPPRLPRPRPRPNDVPRP, which “shrunken log2 fold change” value is on record?
The value was -0.206.

For RRIRPRPPRLPRPRPRPNEAPRP, which “shrunken log2 fold change” value is on record?
The value was -0.151.

For RRIRPRPPRLPRPRPRPNFMPRP, which “shrunken log2 fold change” value is on record?
Its value is 0.109.

For RRIRPRPPRLPRPRPRPNFNPRP, which “shrunken log2 fold change” value is on record?
The value was -0.273.

With RRIRPRPPRLPRPRPRPNGKPRP as the sequence, how does the “shrunken log2 fold change” value read?
Its value is -0.257.

RRIRPRPPRLPRPRPRPNGRPRP was tested. Which “shrunken log2 fold change” value did it give?
The value was -0.00968.

RRIRPRPPRLPRPRPRPNGVPRP was tested. Which “shrunken log2 fold change” value did it give?
Its value is -0.0233.

With RRIRPRPPRLPRPRPRPNHKPRP as the sequence, how does the “shrunken log2 fold change” value read?
Its value is -0.385.

Which “shrunken log2 fold change” value does the source give for RRIRPRPPRLPRPRPRPNHSPRP here?
Its value is -0.553.

How did the “shrunken log2 fold change” value turn out when RRIRPRPPRLPRPRPRPNHTPRP was run?
The value was -0.21.

RRIRPRPPRLPRPRPRPNHVPRP was tested. Which “shrunken log2 fold change” value did it give?
Its value is -0.532.

Which “shrunken log2 fold change” value does the source give for RRIRPRPPRLPRPRPRPNIPPRP here?
Its value is -0.355.

How did the “shrunken log2 fold change” value turn out when RRIRPRPPRLPRPRPRPNIVPRP was run?
The value was -0.342.

With RRIRPRPPRLPRPRPRPNKDPRP as the sequence, how does the “shrunken log2 fold change” value read?
Its value is -0.534.

Which “shrunken log2 fold change” value does the source give for RRIRPRPPRLPRPRPRPNLDPRP here?
Its value is 0.109.

With RRIRPRPPRLPRPRPRPNLVPRP as the sequence, how does the “shrunken log2 fold change” value read?
The value was -0.225.

How did the “shrunken log2 fold change” value turn out when RRIRPRPPRLPRPRPRPNMRPRP was run?
Its value is 0.272.

With RRIRPRPPRLPRPRPRPNNAPRP as the sequence, how does the “shrunken log2 fold change” value read?
Its value is -0.19.

With RRIRPRPPRLPRPRPRPNPCPRP as the sequence, how does the “shrunken log2 fold change” value read?
The value was -0.165.

Which “shrunken log2 fold change” value does the source give for RRIRPRPPRLPRPRPRPNQRPRP here?
Its value is 0.0736.

With RRIRPRPPRLPRPRPRPNRPPRP as the sequence, how does the “shrunken log2 fold change” value read?
Its value is 0.274.

For RRIRPRPPRLPRPRPRPNRYPRP, which “shrunken log2 fold change” value is on record?
The value was -0.0334.

Which “shrunken log2 fold change” value does the source give for RRIRPRPPRLPRPRPRPNSFPRP here?
The value was -0.251.

Which “shrunken log2 fold change” value does the source give for RRIRPRPPRLPRPRPRPNSWPRP here?
The value was -0.299.

How did the “shrunken log2 fold change” value turn out when RRIRPRPPRLPRPRPRPNTFPRP was run?
The value was -0.0232.

RRIRPRPPRLPRPRPRPNVFPRP was tested. Which “shrunken log2 fold change” value did it give?
Its value is -0.21.

Which “shrunken log2 fold change” value does the source give for RRIRPRPPRLPRPRPRPNVMPRP here?
Its value is -0.341.

For RRIRPRPPRLPRPRPRPNVYPRP, which “shrunken log2 fold change” value is on record?
Its value is -0.177.

How did the “shrunken log2 fold change” value turn out when RRIRPRPPRLPRPRPRPNYEPRP was run?
The value was -0.442.

For RRIRPRPPRLPRPRPRPPAEPRP, which “shrunken log2 fold change” value is on record?
The value was 0.632.

How did the “shrunken log2 fold change” value turn out when RRIRPRPPRLPRPRPRPPAWPRP was run?
The value was 0.452.

RRIRPRPPRLPRPRPRPPCFPRP was tested. Which “shrunken log2 fold change” value did it give?
Its value is 0.307.

RRIRPRPPRLPRPRPRPPDCPRP was tested. Which “shrunken log2 fold change” value did it give?
The value was -0.0878.

How did the “shrunken log2 fold change” value turn out when RRIRPRPPRLPRPRPRPPENPRP was run?
The value was 0.365.

For RRIRPRPPRLPRPRPRPPEWPRP, which “shrunken log2 fold change” value is on record?
Its value is 0.443.

How did the “shrunken log2 fold change” value turn out when RRIRPRPPRLPRPRPRPPFAPRP was run?
Its value is 0.647.

Which “shrunken log2 fold change” value does the source give for RRIRPRPPRLPRPRPRPPFYPRP here?
Its value is 0.0888.

Which “shrunken log2 fold change” value does the source give for RRIRPRPPRLPRPRPRPPGLPRP here?
Its value is 0.268.

How did the “shrunken log2 fold change” value turn out when RRIRPRPPRLPRPRPRPPHCPRP was run?
Its value is 0.388.

RRIRPRPPRLPRPRPRPPKRPRP was tested. Which “shrunken log2 fold change” value did it give?
Its value is 0.496.

With RRIRPRPPRLPRPRPRPPLAPRP as the sequence, how does the “shrunken log2 fold change” value read?
The value was 0.513.

How did the “shrunken log2 fold change” value turn out when RRIRPRPPRLPRPRPRPPLTPRP was run?
The value was 0.274.

For RRIRPRPPRLPRPRPRPPMCPRP, which “shrunken log2 fold change” value is on record?
The value was 0.0827.

For RRIRPRPPRLPRPRPRPPMIPRP, which “shrunken log2 fold change” value is on record?
The value was -0.425.

For RRIRPRPPRLPRPRPRPPNNPRP, which “shrunken log2 fold change” value is on record?
Its value is 0.414.

With RRIRPRPPRLPRPRPRPPRCPRP as the sequence, how does the “shrunken log2 fold change” value read?
Its value is 0.408.

With RRIRPRPPRLPRPRPRPPRFPRP as the sequence, how does the “shrunken log2 fold change” value read?
Its value is 0.557.

For RRIRPRPPRLPRPRPRPPRYPRP, which “shrunken log2 fold change” value is on record?
Its value is 0.237.

With RRIRPRPPRLPRPRPRPPTDPRP as the sequence, how does the “shrunken log2 fold change” value read?
The value was 0.184.

RRIRPRPPRLPRPRPRPPTPPRP was tested. Which “shrunken log2 fold change” value did it give?
The value was 0.417.
